Tested on: Escherichia coli TOP10
Experiment: shrunken log2 fold change of peptide-encoding DNA abundance (4.5 h post-induction vs induction); higher = less antimicrobial activity (less host growth inhibition)
Details: time post-induction: 4.5 h; library: site-saturation at positions 5, 18, 19, 20
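Further: peptides expressed intracellularly from a pBAD plasmid library in pooled LB shake-flask culture, induced with 0.3% L-arabinose, DNA abundance read by NGS, three biological replicates, DESeq2 with apeglm shrinkage.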

Row | Sequence | shrunken log2 fold change
1 | RRIRIRPPRLPRPRPRPIYSPRP | -0.946
2 | RRIRIRPPRLPRPRPRPKCEPRP | 0.07
3 | RRIRIRPPRLPRPRPRPKCGPRP | -0.0309
4 | RRIRIRPPRLPRPRPRPKCKPRP | -1.21
5 | RRIRIRPPRLPRPRPRPKDLPRP | 0.000215
6 | RRIRIRPPRLPRPRPRPKEMPRP | -0.297
7 | RRIRIRPPRLPRPRPRPKFLPRP | -0.537
8 | RRIRIRPPRLPRPRPRPKFPPRP | -0.204
9 | RRIRIRPPRLPRPRPRPKGDPRP | 0.424
10 | RRIRIRPPRLPRPRPRPKGHPRP | 0.0764
11 | RRIRIRPPRLPRPRPRPKHGPRP | -0.113
12 | RRIRIRPPRLPRPRPRPKHVPRP | -0.406
13 | RRIRIRPPRLPRPRPRPKKGPRP | -0.252
14 | RRIRIRPPRLPRPRPRPKKYPRP | -0.546
15 | RRIRIRPPRLPRPRPRPKNTPRP | -0.695
16 | RRIRIRPPRLPRPRPRPKPGPRP | 0.53
17 | RRIRIRPPRLPRPRPRPKPVPRP | 0.101
18 | RRIRIRPPRLPRPRPRPKQLPRP | -0.0927
19 | RRIRIRPPRLPRPRPRPKRLPRP | 0.181
20 | RRIRIRPPRLPRPRPRPKRVPRP | 0.0424
21 | RRIRIRPPRLPRPRPRPKSDPRP | -0.222
22 | RRIRIRPPRLPRPRPRPKTQPRP | -0.0269
23 | RRIRIRPPRLPRPRPRPKTVPRP | 0.0407
24 | RRIRIRPPRLPRPRPRPKVCPRP | -0.028
25 | RRIRIRPPRLPRPRPRPKWSPRP | 0.107

Row | Sequence | shrunken log2 fold change
26 | RRIRIRPPRLPRPRPRPKYDPRP | -0.51
27 | RRIRIRPPRLPRPRPRPKYYPRP | -0.632
28 | RRIRIRPPRLPRPRPRPLCYPRP | -1.07
29 | RRIRIRPPRLPRPRPRPLESPRP | 0.0516
30 | RRIRIRPPRLPRPRPRPLEVPRP | -0.0958
31 | RRIRIRPPRLPRPRPRPLEYPRP | -0.293
32 | RRIRIRPPRLPRPRPRPLGAPRP | 0.241
33 | RRIRIRPPRLPRPRPRPLIWPRP | -0.236
34 | RRIRIRPPRLPRPRPRPLKPPRP | -0.296
35 | RRIRIRPPRLPRPRPRPLKSPRP | -0.325
36 | RRIRIRPPRLPRPRPRPLKVPRP | -0.29
37 | RRIRIRPPRLPRPRPRPLLEPRP | -0.437
38 | RRIRIRPPRLPRPRPRPLLSPRP | -0.483
39 | RRIRIRPPRLPRPRPRPLMGPRP | -0.166
40 | RRIRIRPPRLPRPRPRPLMIPRP | -0.807
41 | RRIRIRPPRLPRPRPRPLNIPRP | -0.925
42 | RRIRIRPPRLPRPRPRPLPGPRP | -0.0346
43 | RRIRIRPPRLPRPRPRPLQAPRP | 0.0546
44 | RRIRIRPPRLPRPRPRPLQLPRP | -0.573
45 | RRIRIRPPRLPRPRPRPLRQPRP | 0.335
46 | RRIRIRPPRLPRPRPRPLRWPRP | 1.02
47 | RRIRIRPPRLPRPRPRPLSHPRP | -0.0521
48 | RRIRIRPPRLPRPRPRPLSRPRP | -0.243
49 | RRIRIRPPRLPRPRPRPLTPPRP | -0.284
50 | RRIRIRPPRLPRPRPRPLYKPRP | -0.622

Row | Sequence | shrunken log2 fold change
51 | RRIRIRPPRLPRPRPRPMAHPRP | -0.0137
52 | RRIRIRPPRLPRPRPRPMENPRP | 0.0119
53 | RRIRIRPPRLPRPRPRPMEPPRP | -0.101
54 | RRIRIRPPRLPRPRPRPMEYPRP | -0.395
55 | RRIRIRPPRLPRPRPRPMGCPRP | 0.00177
56 | RRIRIRPPRLPRPRPRPMINPRP | -0.714
57 | RRIRIRPPRLPRPRPRPMIPPRP | 1.87
58 | RRIRIRPPRLPRPRPRPMKEPRP | 0.116
59 | RRIRIRPPRLPRPRPRPMKVPRP | -0.00968
60 | RRIRIRPPRLPRPRPRPMLMPRP | -0.515
61 | RRIRIRPPRLPRPRPRPMMKPRP | -0.166
62 | RRIRIRPPRLPRPRPRPMNRPRP | -0.108
63 | RRIRIRPPRLPRPRPRPMQRPRP | -0.129
64 | RRIRIRPPRLPRPRPRPMRRPRP | 0.0307
65 | RRIRIRPPRLPRPRPRPMSIPRP | -0.0563
66 | RRIRIRPPRLPRPRPRPMTNPRP | -0.108
67 | RRIRIRPPRLPRPRPRPMTRPRP | -0.0885
68 | RRIRIRPPRLPRPRPRPMWHPRP | -0.176
69 | RRIRIRPPRLPRPRPRPMYSPRP | -0.11
70 | RRIRIRPPRLPRPRPRPNANPRP | -0.252
71 | RRIRIRPPRLPRPRPRPNDEPRP | -0.781
72 | RRIRIRPPRLPRPRPRPNDGPRP | -0.483
73 | RRIRIRPPRLPRPRPRPNENPRP | -0.59
74 | RRIRIRPPRLPRPRPRPNEPPRP | -0.0172
75 | RRIRIRPPRLPRPRPRPNERPRP | -0.319

Row | Sequence | shrunken log2 fold change
76 | RRIRIRPPRLPRPRPRPNFPPRP | -0.144
77 | RRIRIRPPRLPRPRPRPNFVPRP | 0.0196
78 | RRIRIRPPRLPRPRPRPNGCPRP | -0.0792
79 | RRIRIRPPRLPRPRPRPNGGPRP | -0.108
80 | RRIRIRPPRLPRPRPRPNHCPRP | -0.937
81 | RRIRIRPPRLPRPRPRPNHFPRP | -0.694
82 | RRIRIRPPRLPRPRPRPNHPPRP | -0.469
83 | RRIRIRPPRLPRPRPRPNIKPRP | -1.05
84 | RRIRIRPPRLPRPRPRPNIYPRP | -0.111
85 | RRIRIRPPRLPRPRPRPNKRPRP | -0.368
86 | RRIRIRPPRLPRPRPRPNLYPRP | -0.565
87 | RRIRIRPPRLPRPRPRPNMYPRP | -0.59
88 | RRIRIRPPRLPRPRPRPNNHPRP | -1.03
89 | RRIRIRPPRLPRPRPRPNNIPRP | -0.937
90 | RRIRIRPPRLPRPRPRPNPEPRP | -0.0503
91 | RRIRIRPPRLPRPRPRPNQDPRP | -0.507
92 | RRIRIRPPRLPRPRPRPNQQPRP | 0.0352
93 | RRIRIRPPRLPRPRPRPNSCPRP | -0.184
94 | RRIRIRPPRLPRPRPRPNSHPRP | -0.866
95 | RRIRIRPPRLPRPRPRPNSIPRP | -0.366
96 | RRIRIRPPRLPRPRPRPNTAPRP | -0.0523
97 | RRIRIRPPRLPRPRPRPNVNPRP | -0.594
98 | RRIRIRPPRLPRPRPRPNWDPRP | -0.0401
99 | RRIRIRPPRLPRPRPRPNYKPRP | -0.911
100 | RRIRIRPPRLPRPRPRPNYYPRP | -1.07

Row | Sequence | shrunken log2 fold change
101 | RRIRIRPPRLPRPRPRPPAMPRP | 1.68
102 | RRIRIRPPRLPRPRPRPPCFPRP | -0.11
103 | RRIRIRPPRLPRPRPRPPEQPRP | 0.118
104 | RRIRIRPPRLPRPRPRPPETPRP | 0.246
105 | RRIRIRPPRLPRPRPRPPGAPRP | 0.431
106 | RRIRIRPPRLPRPRPRPPGIPRP | -0.147
107 | RRIRIRPPRLPRPRPRPPGLPRP | 0.204
108 | RRIRIRPPRLPRPRPRPPIEPRP | 0.0545
109 | RRIRIRPPRLPRPRPRPPIYPRP | -0.592
110 | RRIRIRPPRLPRPRPRPPKEPRP | -0.0998
111 | RRIRIRPPRLPRPRPRPPKTPRP | -0.00537
112 | RRIRIRPPRLPRPRPRPPLHPRP | 0.0232
113 | RRIRIRPPRLPRPRPRPPMHPRP | -0.0688
114 | RRIRIRPPRLPRPRPRPPMKPRP | -0.789
115 | RRIRIRPPRLPRPRPRPPMTPRP | -0.0813
116 | RRIRIRPPRLPRPRPRPPNLPRP | -0.188
117 | RRIRIRPPRLPRPRPRPPQCPRP | -0.244
118 | RRIRIRPPRLPRPRPRPPQMPRP | -0.0135
119 | RRIRIRPPRLPRPRPRPPRIPRP | 0.333
120 | RRIRIRPPRLPRPRPRPPRQPRP | 0.337
121 | RRIRIRPPRLPRPRPRPPSAPRP | 0.369
122 | RRIRIRPPRLPRPRPRPPSLPRP | 0.18
123 | RRIRIRPPRLPRPRPRPPVAPRP | 0.123
124 | RRIRIRPPRLPRPRPRPPVPPRP | 0.233
125 | RRIRIRPPRLPRPRPRPPYHPRP | -0.652

Row | Sequence | shrunken log2 fold change
126 | RRIRIRPPRLPRPRPRPQCRPRP | -0.0364
127 | RRIRIRPPRLPRPRPRPQDFPRP | -0.1
128 | RRIRIRPPRLPRPRPRPQDGPRP | 0.0409
129 | RRIRIRPPRLPRPRPRPQDHPRP | -0.466
130 | RRIRIRPPRLPRPRPRPQEFPRP | 0.0204
131 | RRIRIRPPRLPRPRPRPQEHPRP | -0.0111
132 | RRIRIRPPRLPRPRPRPQEKPRP | 0.0553
133 | RRIRIRPPRLPRPRPRPQENPRP | -0.494
134 | RRIRIRPPRLPRPRPRPQFDPRP | -0.505
135 | RRIRIRPPRLPRPRPRPQFQPRP | -0.166
136 | RRIRIRPPRLPRPRPRPQGFPRP | -0.129
137 | RRIRIRPPRLPRPRPRPQHKPRP | -0.621
138 | RRIRIRPPRLPRPRPRPQIAPRP | -0.0185
139 | RRIRIRPPRLPRPRPRPQKNPRP | -0.355
140 | RRIRIRPPRLPRPRPRPQKTPRP | -0.168
141 | RRIRIRPPRLPRPRPRPQKVPRP | -0.102
142 | RRIRIRPPRLPRPRPRPQMHPRP | -0.494
143 | RRIRIRPPRLPRPRPRPQNCPRP | -0.0145
144 | RRIRIRPPRLPRPRPRPQPYPRP | -0.84
145 | RRIRIRPPRLPRPRPRPQRDPRP | 0.0634
146 | RRIRIRPPRLPRPRPRPQRVPRP | -0.406
147 | RRIRIRPPRLPRPRPRPQSYPRP | -0.603
148 | RRIRIRPPRLPRPRPRPQTSPRP | -0.404
149 | RRIRIRPPRLPRPRPRPQTVPRP | -0.271
150 | RRIRIRPPRLPRPRPRPRAGPRP | 1.6
